The record followed here is US20220332804A1 (CSL INNOVATION, published 2022).

Holding throughout (assay): SPR, KD relative to WT C2;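 also: biacore SPR at 37 °C, anti-C2 mAbs captured via immobilised goat anti-human IgG, C2 alanine or serine surface mutants as analytes, 1:1 model fitted, double-referenced sensograms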
In general terms: SPR reads the build-up and loss of mass on a sensor chip optically.

One test concerns the target T1, human C2 M648A (human, UniProt P06681 21-752).
T1 sequence: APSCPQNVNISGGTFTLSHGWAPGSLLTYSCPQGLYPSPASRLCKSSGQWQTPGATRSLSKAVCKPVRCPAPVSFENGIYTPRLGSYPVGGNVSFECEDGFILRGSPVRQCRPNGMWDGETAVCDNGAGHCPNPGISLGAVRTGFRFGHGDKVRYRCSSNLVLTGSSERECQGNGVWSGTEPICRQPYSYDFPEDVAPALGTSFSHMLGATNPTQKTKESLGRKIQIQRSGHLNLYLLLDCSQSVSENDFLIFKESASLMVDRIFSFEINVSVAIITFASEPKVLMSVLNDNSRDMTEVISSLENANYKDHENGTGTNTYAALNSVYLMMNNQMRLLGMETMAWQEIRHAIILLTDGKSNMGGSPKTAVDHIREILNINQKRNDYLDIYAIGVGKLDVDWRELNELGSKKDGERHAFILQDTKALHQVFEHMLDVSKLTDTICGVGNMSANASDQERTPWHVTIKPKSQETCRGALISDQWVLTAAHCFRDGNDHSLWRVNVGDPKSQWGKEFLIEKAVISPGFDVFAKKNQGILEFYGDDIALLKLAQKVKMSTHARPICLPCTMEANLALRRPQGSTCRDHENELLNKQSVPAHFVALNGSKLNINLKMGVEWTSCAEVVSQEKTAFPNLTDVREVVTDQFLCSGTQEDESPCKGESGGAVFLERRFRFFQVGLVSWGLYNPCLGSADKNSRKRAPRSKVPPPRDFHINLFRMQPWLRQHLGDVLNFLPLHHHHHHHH

In another test the target is T2, human C2 P486A (human, UniProt P06681 21-752).
T2 sequence: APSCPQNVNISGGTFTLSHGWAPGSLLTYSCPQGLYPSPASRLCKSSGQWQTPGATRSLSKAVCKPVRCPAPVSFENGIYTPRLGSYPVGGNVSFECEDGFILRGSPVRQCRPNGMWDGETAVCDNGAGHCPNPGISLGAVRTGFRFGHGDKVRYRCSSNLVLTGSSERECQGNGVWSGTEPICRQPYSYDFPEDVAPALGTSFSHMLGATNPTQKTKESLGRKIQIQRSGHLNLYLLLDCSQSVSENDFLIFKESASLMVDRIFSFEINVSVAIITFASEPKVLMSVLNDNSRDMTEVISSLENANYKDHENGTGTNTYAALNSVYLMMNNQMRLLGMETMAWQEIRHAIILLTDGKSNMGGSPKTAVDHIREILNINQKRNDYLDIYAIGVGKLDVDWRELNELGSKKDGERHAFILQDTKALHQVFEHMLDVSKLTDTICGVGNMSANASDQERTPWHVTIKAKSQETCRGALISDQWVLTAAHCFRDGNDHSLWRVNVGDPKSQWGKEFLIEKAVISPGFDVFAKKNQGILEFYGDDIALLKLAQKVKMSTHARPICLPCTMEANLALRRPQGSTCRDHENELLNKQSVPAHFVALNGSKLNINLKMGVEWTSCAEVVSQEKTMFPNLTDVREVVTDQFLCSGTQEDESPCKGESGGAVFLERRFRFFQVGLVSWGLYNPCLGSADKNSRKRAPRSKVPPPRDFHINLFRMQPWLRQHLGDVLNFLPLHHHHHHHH

Another test deals with T3, human C2 G707A (human, UniProt P06681 21-752).
T3 sequence: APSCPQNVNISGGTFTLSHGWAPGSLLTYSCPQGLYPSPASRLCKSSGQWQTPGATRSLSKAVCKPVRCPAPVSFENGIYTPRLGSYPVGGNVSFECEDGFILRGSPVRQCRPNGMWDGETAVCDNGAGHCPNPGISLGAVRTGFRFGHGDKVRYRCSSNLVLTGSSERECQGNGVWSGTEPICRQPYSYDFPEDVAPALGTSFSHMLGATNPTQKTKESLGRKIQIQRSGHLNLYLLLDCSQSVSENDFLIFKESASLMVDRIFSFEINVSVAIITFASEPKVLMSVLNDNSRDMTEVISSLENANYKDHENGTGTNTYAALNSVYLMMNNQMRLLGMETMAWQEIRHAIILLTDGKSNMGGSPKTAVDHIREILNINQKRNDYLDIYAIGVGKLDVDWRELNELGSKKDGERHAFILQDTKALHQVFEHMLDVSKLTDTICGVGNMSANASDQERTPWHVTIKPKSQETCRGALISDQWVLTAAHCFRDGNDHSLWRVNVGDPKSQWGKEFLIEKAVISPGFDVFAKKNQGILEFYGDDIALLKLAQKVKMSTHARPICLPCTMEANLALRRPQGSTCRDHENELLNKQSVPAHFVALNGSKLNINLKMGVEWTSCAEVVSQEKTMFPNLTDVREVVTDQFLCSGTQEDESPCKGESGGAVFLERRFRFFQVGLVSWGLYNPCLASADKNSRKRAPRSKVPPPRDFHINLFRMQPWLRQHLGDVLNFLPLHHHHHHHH

In a further test the target is T4, human C2 R719A (human, UniProt P06681 21-752).
T4 sequence: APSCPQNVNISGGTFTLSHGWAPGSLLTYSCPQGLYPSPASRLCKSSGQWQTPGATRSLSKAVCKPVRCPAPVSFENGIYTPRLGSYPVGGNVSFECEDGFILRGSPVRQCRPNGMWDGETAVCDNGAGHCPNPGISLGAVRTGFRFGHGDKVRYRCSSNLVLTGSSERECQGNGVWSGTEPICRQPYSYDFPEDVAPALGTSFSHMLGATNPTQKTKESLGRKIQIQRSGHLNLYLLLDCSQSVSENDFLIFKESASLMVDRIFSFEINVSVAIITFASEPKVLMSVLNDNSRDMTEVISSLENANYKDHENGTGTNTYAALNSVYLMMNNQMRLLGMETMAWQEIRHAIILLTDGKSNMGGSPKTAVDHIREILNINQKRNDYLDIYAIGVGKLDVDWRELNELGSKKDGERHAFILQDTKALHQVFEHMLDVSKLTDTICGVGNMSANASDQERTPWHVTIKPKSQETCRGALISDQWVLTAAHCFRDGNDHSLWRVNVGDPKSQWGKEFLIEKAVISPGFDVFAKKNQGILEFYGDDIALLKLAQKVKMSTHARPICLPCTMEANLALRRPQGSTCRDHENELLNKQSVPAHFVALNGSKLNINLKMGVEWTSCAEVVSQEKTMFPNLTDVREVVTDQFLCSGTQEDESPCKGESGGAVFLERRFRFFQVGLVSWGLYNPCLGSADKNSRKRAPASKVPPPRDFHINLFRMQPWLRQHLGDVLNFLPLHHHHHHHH

B1: RF16-226 (antibody, human IgG4 S228P, lambda)
heavy: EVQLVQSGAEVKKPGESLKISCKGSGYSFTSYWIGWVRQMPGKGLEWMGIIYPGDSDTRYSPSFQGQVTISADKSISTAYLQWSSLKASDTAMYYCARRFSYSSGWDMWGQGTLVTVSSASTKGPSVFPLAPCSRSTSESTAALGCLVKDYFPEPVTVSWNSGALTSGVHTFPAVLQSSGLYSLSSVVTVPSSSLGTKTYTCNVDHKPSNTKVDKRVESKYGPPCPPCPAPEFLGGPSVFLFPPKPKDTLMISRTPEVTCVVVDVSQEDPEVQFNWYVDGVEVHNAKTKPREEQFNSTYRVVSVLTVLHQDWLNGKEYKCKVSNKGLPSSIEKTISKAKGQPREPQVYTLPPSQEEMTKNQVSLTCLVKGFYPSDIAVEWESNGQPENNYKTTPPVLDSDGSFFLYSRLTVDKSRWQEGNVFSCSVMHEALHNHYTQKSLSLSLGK
light: SYELTQPPSVSVSPGQTARITCSGDALTSKYVAWYQQKSGLAPLLVIYEDTRRPSGIPAKFSGSSSGSVATLTISGAHGDDEADYYCYSTDASGHQRVFGGGTKLTVLSQPKAAPSVTLFPPSSEELQANKATLVCLISDFYPGAVTVAWKADGSPVKAGVETTKPSKQSNNKYAASSYLSLTPEQWKSHRSYSCQVTHEGSTVEKTVAPTECS
notes: pH-dependent anti-C2 antibody from a phage display library; also called WT
Turning to B1, the Fold diff with human C2 M648A is 20 fold; with human C2 P486A it was 1 fold; with human C2 G707A, 2 fold; in the test with human C2 R719A, 1 fold.
